Data reported in patent US20250304644A1, “PEPTIDES TRIPLE AGONISTS OF GIP, GLP-1 AND GLP-2” (BAINAN BIOTECH APS, priority 2021, published 2025).
Where no end group is shown, it is not given here. [ ]: non-standard residue; d: D form. The star is where a group is joined. Decanoyl = CCCCCCCCCC(=O)*; Aib = CC(C)(N)C(=O)O

How the values were obtained:
Test in all cases: cell-based or functional assay
[1] = molecular target: T1, human GIPR (glucose-dependent insulinotropic polypeptide receptor) (human, UniProt P48546 22-466)
T1 sequence (looked up): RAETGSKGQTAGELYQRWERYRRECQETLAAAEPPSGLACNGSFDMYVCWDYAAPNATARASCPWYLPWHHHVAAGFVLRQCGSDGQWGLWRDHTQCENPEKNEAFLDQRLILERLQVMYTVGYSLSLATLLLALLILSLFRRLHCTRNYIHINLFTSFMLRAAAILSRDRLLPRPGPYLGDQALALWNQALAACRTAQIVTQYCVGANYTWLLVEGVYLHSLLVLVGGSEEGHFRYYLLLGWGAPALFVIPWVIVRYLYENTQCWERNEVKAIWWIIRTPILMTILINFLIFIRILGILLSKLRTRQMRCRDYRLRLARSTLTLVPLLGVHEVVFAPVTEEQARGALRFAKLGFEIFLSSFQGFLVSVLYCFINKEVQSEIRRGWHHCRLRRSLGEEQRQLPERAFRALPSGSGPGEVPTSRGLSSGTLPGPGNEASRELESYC

[2] = molecular target: T2, human GLP-2R (glucagon-like peptide-2 receptor) (human, UniProt O95838 1-553)
T2 sequence (looked up): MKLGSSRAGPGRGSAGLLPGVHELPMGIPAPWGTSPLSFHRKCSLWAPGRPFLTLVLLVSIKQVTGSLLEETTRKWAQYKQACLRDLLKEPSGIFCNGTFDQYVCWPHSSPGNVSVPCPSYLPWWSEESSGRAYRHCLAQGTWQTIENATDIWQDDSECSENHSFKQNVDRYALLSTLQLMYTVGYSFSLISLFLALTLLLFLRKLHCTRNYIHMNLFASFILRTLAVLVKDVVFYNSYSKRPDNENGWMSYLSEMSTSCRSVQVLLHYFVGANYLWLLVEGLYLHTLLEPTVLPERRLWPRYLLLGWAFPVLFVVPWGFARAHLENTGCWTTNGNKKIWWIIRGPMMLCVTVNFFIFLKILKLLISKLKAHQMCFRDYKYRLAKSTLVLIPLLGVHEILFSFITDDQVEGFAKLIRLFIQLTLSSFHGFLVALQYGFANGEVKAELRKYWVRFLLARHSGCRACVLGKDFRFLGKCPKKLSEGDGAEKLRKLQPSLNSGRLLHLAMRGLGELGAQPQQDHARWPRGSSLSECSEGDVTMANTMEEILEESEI

[3] = molecular target: human GLP-1R (glucagon-like peptide-1 receptor) (human, UniProt P43220 24-463)

HXDGTFISDYSTILDNLAARDFINWLIQTKITK (Aib at position 2; K33 acylated with C10, K(C10); C-terminus -OH) [Compound 2] was tested, and the “Efficacy GIPR” value [1] was 99, the “Efficacy GLP-2R” value [2] was 105 and the “Efficacy GLP-1R” value [3] was 84.

B1: Compound 15 (peptide)
peptide: H[Aib]DGTFISDYSTILDNIAARDFINWLIQTKITK(Decanoyl)-NH2
modifications: N-terminus assumed
SMILES: CCCCCCCCCC(=O)NCCCC[C@H](NC(=O)[C@@H](NC(=O)[C@@H](NC(=O)[C@H](CCCCN)NC(=O)[C@@H](NC(=O)[C@H](CCC(N)=O)NC(=O)[C@@H](NC(=O)[C@H](CC(C)C)NC(=O)[C@H](Cc1c[nH]c2ccccc12)NC(=O)[C@H](CC(N)=O)NC(=O)[C@@H](NC(=O)[C@H](Cc1ccccc1)NC(=O)[C@H](CC(=O)O)NC(=O)[C@H](CCCNC(=N)N)NC(=O)[C@H](C)NC(=O)[C@H](C)NC(=O)[C@@H](NC(=O)[C@H](CC(N)=O)NC(=O)[C@H](CC(=O)O)NC(=O)[C@H](CC(C)C)NC(=O)[C@@H](NC(=O)[C@@H](NC(=O)[C@H](CO)NC(=O)[C@H](Cc1ccc(O)cc1)NC(=O)[C@H](CC(=O)O)NC(=O)[C@H](CO)NC(=O)[C@@H](NC(=O)[C@H](Cc1ccccc1)NC(=O)[C@@H](NC(=O)CNC(=O)[C@H](CC(=O)O)NC(=O)C(C)(C)NC(=O)[C@@H](N)Cc1c[nH]cn1)[C@@H](C)O)[C@@H](C)CC)[C@@H](C)O)[C@@H](C)CC)[C@@H](C)CC)[C@@H](C)CC)[C@@H](C)CC)[C@@H](C)O)[C@@H](C)CC)[C@@H](C)O)C(N)=O
B1 was tested, and the “EC50 (nM) GIPR” value [1] was 0.794 nM, the “Efficacy GIPR” value [1] was 98 and the “pEC50 GIPR” value [1] was 9.1. The “EC50 (nM) GLP-1R” value [3] was 4.73 nM, the “Efficacy GLP-1R” value [3] was 90 and the “logEC50 GLP-1R” value [3] was 8.3.

B2: Compound 4 (peptide)
peptide: H[Aib]DGTFISDYSTILDLLAARDFINWLIQTKITK(Decanoyl)-NH2
modifications: N-terminus assumed
SMILES: CCCCCCCCCC(=O)NCCCC[C@H](NC(=O)[C@@H](NC(=O)[C@@H](NC(=O)[C@H](CCCCN)NC(=O)[C@@H](NC(=O)[C@H](CCC(N)=O)NC(=O)[C@@H](NC(=O)[C@H](CC(C)C)NC(=O)[C@H](Cc1c[nH]c2ccccc12)NC(=O)[C@H](CC(N)=O)NC(=O)[C@@H](NC(=O)[C@H](Cc1ccccc1)NC(=O)[C@H](CC(=O)O)NC(=O)[C@H](CCCNC(=N)N)NC(=O)[C@H](C)NC(=O)[C@H](C)NC(=O)[C@H](CC(C)C)NC(=O)[C@H](CC(C)C)NC(=O)[C@H](CC(=O)O)NC(=O)[C@H](CC(C)C)NC(=O)[C@@H](NC(=O)[C@@H](NC(=O)[C@H](CO)NC(=O)[C@H](Cc1ccc(O)cc1)NC(=O)[C@H](CC(=O)O)NC(=O)[C@H](CO)NC(=O)[C@@H](NC(=O)[C@H](Cc1ccccc1)NC(=O)[C@@H](NC(=O)CNC(=O)[C@H](CC(=O)O)NC(=O)C(C)(C)NC(=O)[C@@H](N)Cc1c[nH]cn1)[C@@H](C)O)[C@@H](C)CC)[C@@H](C)O)[C@@H](C)CC)[C@@H](C)CC)[C@@H](C)CC)[C@@H](C)O)[C@@H](C)CC)[C@@H](C)O)C(N)=O
With B2 the “EC50 (nM) GIPR” value [1] was 1.12 nM, the “Efficacy GIPR” value [1] was 102 and the “pEC50 GIPR” value [1] was 9. The “EC50 (nM) GLP-2R” value [2] was 28.2 nM, the “Efficacy GLP-2R” value [2] was 92 and the “logEC50 GLP-2R” value [2] was 7.6. The “EC50 (nM) GLP-1R” value [3] was 25.1 nM, the “Efficacy GLP-1R” value [3] was 82 and the “logEC50 GLP-1R” value [3] was 7.6.

B3: Compound 7 (peptide)
peptide: H-H[Aib]DGTFISDYSTILENLAARDFINWLIQTKITK(Decanoyl)-NH2
SMILES: CCCCCCCCCC(=O)NCCCC[C@H](NC(=O)[C@@H](NC(=O)[C@@H](NC(=O)[C@H](CCCCN)NC(=O)[C@@H](NC(=O)[C@H](CCC(N)=O)NC(=O)[C@@H](NC(=O)[C@H](CC(C)C)NC(=O)[C@H](Cc1c[nH]c2ccccc12)NC(=O)[C@H](CC(N)=O)NC(=O)[C@@H](NC(=O)[C@H](Cc1ccccc1)NC(=O)[C@H](CC(=O)O)NC(=O)[C@H](CCCNC(=N)N)NC(=O)[C@H](C)NC(=O)[C@H](C)NC(=O)[C@H](CC(C)C)NC(=O)[C@H](CC(N)=O)NC(=O)[C@H](CCC(=O)O)NC(=O)[C@H](CC(C)C)NC(=O)[C@@H](NC(=O)[C@@H](NC(=O)[C@H](CO)NC(=O)[C@H](Cc1ccc(O)cc1)NC(=O)[C@H](CC(=O)O)NC(=O)[C@H](CO)NC(=O)[C@@H](NC(=O)[C@H](Cc1ccccc1)NC(=O)[C@@H](NC(=O)CNC(=O)[C@H](CC(=O)O)NC(=O)C(C)(C)NC(=O)[C@@H](N)Cc1c[nH]cn1)[C@@H](C)O)[C@@H](C)CC)[C@@H](C)O)[C@@H](C)CC)[C@@H](C)CC)[C@@H](C)CC)[C@@H](C)O)[C@@H](C)CC)[C@@H](C)O)C(N)=O
With B3 the “EC50 (nM) GIPR” value [1] was 0.794 nM, the “Efficacy GIPR” value [1] was 96 and the “pEC50 GIPR” value [1] was 9.1. For the same binder, the “EC50 (nM) GLP-2R” value [2] was 12.6 nM, the “Efficacy GLP-2R” value [2] was 97 and the “logEC50 GLP-2R” value [2] was 7.9.

B4: Compound 3 (peptide)
peptide: H[Aib]DGTFISDYATILDNLAARDFINWLIQTKITK(Decanoyl)-OH
modifications: N-terminus assumed
SMILES: CCCCCCCCCC(=O)NCCCC[C@H](NC(=O)[C@@H](NC(=O)[C@@H](NC(=O)[C@H](CCCCN)NC(=O)[C@@H](NC(=O)[C@H](CCC(N)=O)NC(=O)[C@@H](NC(=O)[C@H](CC(C)C)NC(=O)[C@H](Cc1c[nH]c2ccccc12)NC(=O)[C@H](CC(N)=O)NC(=O)[C@@H](NC(=O)[C@H](Cc1ccccc1)NC(=O)[C@H](CC(=O)O)NC(=O)[C@H](CCCNC(=N)N)NC(=O)[C@H](C)NC(=O)[C@H](C)NC(=O)[C@H](CC(C)C)NC(=O)[C@H](CC(N)=O)NC(=O)[C@H](CC(=O)O)NC(=O)[C@H](CC(C)C)NC(=O)[C@@H](NC(=O)[C@@H](NC(=O)[C@H](C)NC(=O)[C@H](Cc1ccc(O)cc1)NC(=O)[C@H](CC(=O)O)NC(=O)[C@H](CO)NC(=O)[C@@H](NC(=O)[C@H](Cc1ccccc1)NC(=O)[C@@H](NC(=O)CNC(=O)[C@H](CC(=O)O)NC(=O)C(C)(C)NC(=O)[C@@H](N)Cc1c[nH]cn1)[C@@H](C)O)[C@@H](C)CC)[C@@H](C)O)[C@@H](C)CC)[C@@H](C)CC)[C@@H](C)CC)[C@@H](C)O)[C@@H](C)CC)[C@@H](C)O)C(=O)O
With B4 the “Efficacy GIPR” value [1] was 80, the “pEC50 GIPR” value [1] was 9.2 and the “EC50 (nM) GLP-2R” value [2] was 2.8 nM. The “Efficacy GLP-2R” value [2] was 101, the “logEC50 GLP-2R” value [2] was 8.6 and the “EC50 (nM) GLP-1R” value [3] was 1.78 nM. For the same binder, the “Efficacy GLP-1R” value [3] was 94 and the “logEC50 GLP-1R” value [3] was 8.8.

B5: Compound 8 (peptide)
peptide: H-H[Aib]DGTFISDYSTILDNLAAREFINWLIQTKITK(Decanoyl)-NH2
SMILES: CCCCCCCCCC(=O)NCCCC[C@H](NC(=O)[C@@H](NC(=O)[C@@H](NC(=O)[C@H](CCCCN)NC(=O)[C@@H](NC(=O)[C@H](CCC(N)=O)NC(=O)[C@@H](NC(=O)[C@H](CC(C)C)NC(=O)[C@H](Cc1c[nH]c2ccccc12)NC(=O)[C@H](CC(N)=O)NC(=O)[C@@H](NC(=O)[C@H](Cc1ccccc1)NC(=O)[C@H](CCC(=O)O)NC(=O)[C@H](CCCNC(=N)N)NC(=O)[C@H](C)NC(=O)[C@H](C)NC(=O)[C@H](CC(C)C)NC(=O)[C@H](CC(N)=O)NC(=O)[C@H](CC(=O)O)NC(=O)[C@H](CC(C)C)NC(=O)[C@@H](NC(=O)[C@@H](NC(=O)[C@H](CO)NC(=O)[C@H](Cc1ccc(O)cc1)NC(=O)[C@H](CC(=O)O)NC(=O)[C@H](CO)NC(=O)[C@@H](NC(=O)[C@H](Cc1ccccc1)NC(=O)[C@@H](NC(=O)CNC(=O)[C@H](CC(=O)O)NC(=O)C(C)(C)NC(=O)[C@@H](N)Cc1c[nH]cn1)[C@@H](C)O)[C@@H](C)CC)[C@@H](C)O)[C@@H](C)CC)[C@@H](C)CC)[C@@H](C)CC)[C@@H](C)O)[C@@H](C)CC)[C@@H](C)O)C(N)=O
B5 was tested, and the “EC50 (nM) GIPR” value [1] was 1.12 nM, the “Efficacy GIPR” value [1] was 99 and the “pEC50 GIPR” value [1] was 9. The “EC50 (nM) GLP-1R” value [3] was 2.24 nM, the “Efficacy GLP-1R” value [3] was 98 and the “logEC50 GLP-1R” value [3] was 8.7.
